This data set in a line: label from the status in PepcDB records.
For “MAKSHPRWRLAKKVLTWLFFIAVVVLLVVYAKKVDWGDVWTVIRDYNRTALLSAVGLVIVSYLLYGCYDLLGRLYCGHKLAKRQVMLVSFVCYAFNLTLSTWVGGIGMRYRLYSRLGLPGSTITRIFSLSITTNWLGYILLGGIIFTFGIVQLPDHWYIDAGTLRILGIVLLLIIAVYLWFCAFAKRRHMTIKGQKLVLPSWKFALAQMAISSANWMAMGAIIWLLMGQDVNYFFVLGVLLVSSIAGVIVHIPAGIGVLEAVFLALLAGEHTSQGTIIAALLAYRVLYYFIPLLLALVCYLILESRAKKLRAKNERAMAK”, the protein production result is “failed”.
Turning to “MAKSPKFMVFHLRELIYTLVFILLGIILIISLVIMFYNRGNKQEKEENTGVYEPGVYTSCVTLNGNPMDVKVTLDDNHINSITVDNVSNTITTMYPLVEPAFNDIANQIVTNQSLENIKFDDNSKYTYTILYNAILDTIEKGKVGE”, the protein production entry was “failed”.
Turning to “MAKSSVANIFTFSNLSCGLLSLIMTLAASSTNNEYYKLACLFILIAGIIDRYDGRVARALNVSSELGKELDSLADLVSFGVAPSILAYHLCNFSSNFNFLGYIFVLIFPIAGAYRLARYNLSTFDGVFRGIPITLAGMFMALYSLIYLLLNTQPNAVLTIVIMLILSYLMVSNLKLKKL”, the protein production result is recorded as “not failed”.
Regarding “MAKTGDPARAVTPPAIGTLDFALDRSSPVPLYYQLARQLEAAIEHGVLAPGNLLGNEVDLSVRLGLSRPTVRQAIQSLVDKGLLVRRRGVGTQVVHSQVRRPLELSSLYDDLEAAGQDPGTRVVRNEDVPATAEVAAALGVTEGTGVTVLERLRLTHGQPVAMLCNHLPAGLLELDDARLESTGLYRMMRARGITLHSARQTVGARIASREEAERLGEREGAALLTMRRIAYDDTGRPVEYGTHVYRASRYAFDFQLLVRN”, the protein production entry was “not failed”.
In the case of “MAKTPAAAPTATDPVAIAGPAPETIAVHGHRIACDGVGGALGHPRVWLEMGAAGFVDCPYCDRRFVAATDAGHDEHLAPGVYVDAAGHLEHHHHHH”, the protein production entry was “failed”.
In the case of “MAKVTVILTSYNKPNTVGAAIESVLSQSFQDWELWIMDDASNEETQQVIDSYMLYPNVYYYNSQVKDEERHKSTRYATLINEAISRSTGDYLCYLTDDNYYLPERLQKMVQYLERYPSVDVVYSKQLVRTVDNQLITQAERIRPTKGTIRYAENIVDHCSVMHRRSLAEKVYETYGSYWNDDPICWHNGDAFFWNRLSAFALFYPINEVLDVCLKSPTSFQALNAFLPEYLPSGTLVKGLGADVYLIEDNHRRAITPTMFQQLHYREENVVHIPDPVLFKYKEGPAIDEHIWEQGKLFPNHRLIKASQEPHIYYVENHRKRHILTHKEFRLYKFRASEVVEVSRSFLDSIPTGPPISAHVNNQHPLPEGLLVRCGFKFYLSGNNRLYPIKSRVMKKLNLQMKNAVFLDSRAIGRYEQGETIEWKTNKCQPRFNTSSLEHHHHHH” it was “failed”; in that of “MAKWRVAAILSGALLAADARAEALRMLLTQIPGIIEQAPDGASMRGVGIDLMKEVGRRAGVELRFEAYPQARARLLVERQRDACLPVAHLPEQAANFKWSAPLLQMRLVLLARGDDGRQLRSLEQAGGLRVGAMRGTMAAARLKERGVAVEESADYLSGLEKLRLGRLDLWAMLDVGVASLARRLEMPPPRVAWVMDTLDVSFACNRQVDDALIARLDGAIAAMRADGSMARFDLR”, “failed”; in that of “MALASSEALVNLVEYARWNQCGVSGGPGTKEFSAEGTEAAKGGRRKAAGGRAGRGGAGRERGGTRDPAMGPGARLALLALLALGGDPAAATGREDTFSALTSVARALAPERRLLGTLRRYLRGEEARLRDLTRFYDKVLSLHEDLKIPVVNPLLAFTLIKRLQSDWRNVVHSLEATENIRALKDGYEKVEQDLPAFEDLEGAARALMRLQDVYMLNVKGLARGVFQRVTGSSITDLYSPRQLFSLTADDCFQVGKVAYDTGDYYHAIPWLEEAVSLFRRAHGEWKTEDEASLEDALDYLAFACFQVGNVSCALSLSREFLVYSPDNKRMARNVLKYERLLAENGHQMAAETAIQRPNVPHLQTRDTYEGLCQTLGSQPTHYQIPSLYCSYETNSSPYLLLQPARKEVVHLRPLIALYHDFVSDEEAQKIRELAEPWLQRSVVASGEKQLQVEYRISKSAWLKDTVDPMLVTLDHRIAALTGLDIQPPYAEYLQVVNYGIGGHYEPHFDHATSPSSPLYRMKSGNRVATFMIYLSSVEAGGATAFIYGNFSVPVVKLSSVEAGGATAFIYGNFSVPVVKLHVFTVPMDGGPWCTCGHWVANKWIHEYGQEFRRPCSTNPED”, “failed”.
In the case of “MALAVTSSSTAISGSSFSRSGASSESKALQICSIRLSDRTHLSQRRYSMKPLNAESHSRSESWVTRASTLIAPEVEEKGGEVEDFEQLAKKLEDASPLEIMDKALERFGDQIAIAFSGAEDVALIEYARLTGKPFRVFSLDTGRLNPETYRLFDAVEKQYGIRIEYMFPDAVEVQALVRNKGLFSFYEDGHQECCRVRKVRPLRRALKGLKAWITGQRKDQSPGTRSEIPIVQVDPVFEGLDGGVGSLVKWNPLANVEGADVWNFLRTMDVPVNALHAQGYVSIGCEPCTRPVLPGQHEREGRWWWEDAKAKECGLHKGNIKEEDGAADSKPAAVQEIFESNNVVALSKGGVENLLKLENRKEAWLVVLYAPWCPFCQAMEASYIELAEKLAGKGVKVAKFRADGEQKEFAKQELQLGSFPTILLFPKRAPRAIKYPSEHRDVDSLMSFVNLLR”, the protein production result is “failed”.
For the sequence “MALILRPPHGYSVRNRYWPGSGASNLPYLFEDFALDGDRRELRRGNSLIAVEPQVFDLLQYLIRNRERVVSKDDLVDAVWQGRIVSDATLASRVNAARSALQDNGEQQRLVRTFPRRGFRFVGTVHEEAGAEATAPVEPAKPGLGIPARPSIAVLPFVNLSGDPDQDYFADGMVEDIITGLSRIRWLFVIARNSSFTYKGRAVDMKQVGQELGVRYVLEGSVRKVGSRVRITGQLIDTEDGGHLWAERYDRELTDVFALQDEITISVVAAIEPNLRRAEIERVKRQRPDSLDAYDLFLRALPDVYTFMPQGAARGLPLLDQALAIEPSYALVHGFAAWAHQTLFIRGGMQAEHSGKASRHAHAAIEHGSGDAMALALAGFTIGLVEHDRKLADEAFSQALSLSASCAFVYAFGCVPVAYGGDATRAIDWGEQALRLNPLDAMNCVPQGMIGFGNFLAGRHEQAIAAGRRAVEMNPGFSILHGWLAAPLARLGRIEEAKAAGSRLMALDPHFTIGRWSAAVGLAPAIIDDVTEAMRLAGLPA”, the protein production result is on record as “failed”.
In the case of “MALKLGLTEAVSLGITHISIYCDHFQIFELVMWRSVPDKDSIAMIMYDVQRIRQQLTSSTPLLVTGNQTNKLAYELALETLVSEISISIEEKALTCDKN” it was “failed”.
In the case of “MALLCYNRGCGQRFDPETNSDDACTYHPGVPVFHDALKGWSCCKRRTTDFSDFLSIVGCTKGRHNSEKPPEPVKPEVKTTEKKELCELKPKFQEHIIQAPKPVEAIKRPSPDEPMTNLELKISASLKQALDKLKLSSGNEENKKEEDNDEIKIGTSCKNGGCSKTYQGLESLEEVCVYHSGVPIFHEGMKYWSCCRRKTSDFNTFLAQEGCTKGKHMWTKKDAGKKVVPCRHDLHQTGGEVTISVYAKNSLPELSRVEANSTLLNVIIVFEGEKEFDQNVKLWGVIDVKRSYVTMTATKIEITMRKAEPMQWASLELPAAKKQEKQKDDTTD”, the protein production entry is on record as “not failed”.
On to “MALLIITTILWAFSFSLIGEYLAGSVDSYFSVLMRVGLAALVFLPFLRTRGQSPRTIVLYMLVGAMQLGIMYLLAFRAYLYLTVSEFLLFTVFTPLYITLIYDLLSGRKLRWGYLLSAALAVLGAAIIRYDKVSDHFWTGLLLVQLSNLCFAIGMVGYKRLMEVRPMPQHNAFAWFYVGAFIVAVAAWFMLGNAQKLPTTTLQWSVLVWLGVVASGLGYFMWNYGATQVDAGTLGIMNNVHVPAGLLVNLAIWQEQPHWPSFISGALVILASLWVHRRWVAPHSGQTADDRRRGSAQSE”, for which the protein production entry was “failed”.
In the case of “MALMQELYSTPASRLDSFVAQWLQPHREWKEEVLDAVRTVEEFLRQEHFQGKRGLDQDVRVLKVVKVGSFGNGTVLRSTREVELVAFLSCFHSFQEAAKHHKDVLRLIWKTMWQSQDLLDLGLEDLRMEQRVPDALVFTIQTRGTAEPITVTIVPAYRALGPSLPNSQPPPEVYVSLIKACGGPGNFCPSFSELQRNFVKHRPTKLKSLLRLVKHWYQQYVKARSPRANLPPLYALELLTIYAWEMGTEEDENFMLDEGFTTVMDLLLEYEVICIYWTKYYTLHNAIIEDCVRKQLKKERPIILDPADPTLNVAEGYRWDIVAQRASQCLKQDCCYDNRENPISSWNVKRARDIHLTVEQRGYPDFNLIVNPYEPIRKVKEKIRRTRGYSGLQRLSFQVPGSERQLLSSRCSLAKYGIFSHTHIYLLETIPSEIQVFVKNPDGGSYAYAINPNSFILGLKQQIEDQQGLPKKQQQLEFQGQVLQDWLGLGIYGIQDSDTLILSKKKGEALFPAS” it was “failed”; in that of “MALPIIVKWGGQEYSVTTLSEDDTVLDLKQFLKTLTGVLPERQKLLGLKVKGKPAENDVKLGALKLKPNTKIMMMGTREESLEDVLGPPPDN”, “failed”.
In the case of “MALQLATLCFVSFSALFFVVDPFSAVPFFLALTRNDDPRRRREIALRASVTAFAVLAAFALTGEWIFRLLGIGLPAFKVAGGVVLLLLALDMVRTQPSRTRITQGEVDASADKEDVAIVPLAMPLLAGPGSIATAIVLMVRARGEDWWHPLPVLLAIALTCLASYLILAGAARTEKVLGRTGLAILERVAGLLLVAIAVQFMMDGLAEGLPRAFPLR” it was “failed”; in that of “MALREQWAETAMGVVVLALTAGFLTYSLTVGGVHMKRGDYEISAKFGEAGSLAPGAAVTVAGVKVGTVSQITLEPKTYLAVAKLSIDPTVKLPADSTAKITSDGLLGGAHVAIAPGASLDDLKPGGEIENTQGAVDLFGLIGSVIRPQGGAATTSTPAEANPATQPAESYLEHHHHHH”, “not failed”.
In the case of “MALRQKLGWSEGDLMRSDAKPCSRLMKQTAAIFTVGGALGFWVLCRLHYGPRITVPRSLRWAGCGALSVSTSTAMLVRLFSPECEPQNIAAYDNIKTPQASLP” it was “failed”; in that of “MALSKRELDELKPWIEKTVKRVLGFSEPTVVTAALNCVGKGMDKKKAADHLKPFLDDSTLRFVDKLFEAVEEGRSSRHS”, “not failed”.
Take “MALVDDGSQPLVSVIIASYNHEKYIEASIASVAAQTYRNVELLVVDDGSSDGSVELLRGLQAKYGFDLRVQQNQGLSRTLNEAITRARGNLIVPFGSDDIMLPQRLEKQVAHMWDKPEVGICAGNIEIIDSNGRVMPGKEQRKRDLPFRRLDFDDLFLDRKPGPMAPTLMFRREALEKVGGFDPDIRLEDVYIELAVTKAGYVIDILGEVLAQYRKHPTNTYKNARFMVDNVFKTYSQFSDHPDYEQVIMRFRNSMFLKCSNRDKVLARELLSGLPLKYWNEKTFRGIARLFFS”: the protein production result is “failed”.
Next, “MALVPVYCLCRQPYNVNHFMIECGLCQDWFHGSCVGIEEENAVDIDIYHCPDCEAVFGPSIMKNWH”: “not failed”; “MALVRKDVVKLAAPIFVEQLFVTLMGMINTMMAGHIGKEAVSAIGMIDSINNIFIAFFSALAVGGTVVVAQYIGQNNIKKANESTKQALYSTIIIAFVITIIMAILKGPLLGFLFGSAEKEVILDANSYFGITLLTYPLITIDLVSNGILRGAGDTKTPMKISILMNVLNVAFTALFIWGIKINGTVVVKSLGITGAALGIATARTIGGIIILIVMVRGSRIVQLKKLTEFKFDMTLLKPIFGIGVPASVESLLFNGGKLIMQIFIVGMGTVAMASNTIVNSISNFLNIPGNSLVIAATALVGQHMGRDDDKGAEKCLSYITKLSTVLLAIVGILSILFSRHLPSPVYWK”: “failed”.

Values taken from a protein production outcome set (Wang et al. 2014).
